Reference: US20200283521A1 (GRANULAR THERAPEUTICS, published 2020)
Where two headings read alike, the source gives them in different places.

Assays:
Test in all cases: direct ELISA on coated protein, IgG1
[1] = target: T1, h4-1BB-Fc
T1 construct: member of the panel m9

[2] = target: T2, hEpCAM-Fc (human, UniProt P16422)
T2 construct: Fc fusion; member of the panel m9
T2 sequence (looked up): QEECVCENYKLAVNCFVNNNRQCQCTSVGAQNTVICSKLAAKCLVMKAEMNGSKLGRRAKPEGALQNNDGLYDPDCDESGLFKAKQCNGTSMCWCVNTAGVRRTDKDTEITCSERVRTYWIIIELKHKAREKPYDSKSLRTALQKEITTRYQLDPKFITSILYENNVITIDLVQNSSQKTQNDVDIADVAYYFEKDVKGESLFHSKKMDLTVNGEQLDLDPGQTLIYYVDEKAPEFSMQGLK

[3] = target: T3, hVCAM-1 (human, UniProt P19320)
T3 construct: purified recombinant protein; member of the panel m9
T3 sequence (looked up): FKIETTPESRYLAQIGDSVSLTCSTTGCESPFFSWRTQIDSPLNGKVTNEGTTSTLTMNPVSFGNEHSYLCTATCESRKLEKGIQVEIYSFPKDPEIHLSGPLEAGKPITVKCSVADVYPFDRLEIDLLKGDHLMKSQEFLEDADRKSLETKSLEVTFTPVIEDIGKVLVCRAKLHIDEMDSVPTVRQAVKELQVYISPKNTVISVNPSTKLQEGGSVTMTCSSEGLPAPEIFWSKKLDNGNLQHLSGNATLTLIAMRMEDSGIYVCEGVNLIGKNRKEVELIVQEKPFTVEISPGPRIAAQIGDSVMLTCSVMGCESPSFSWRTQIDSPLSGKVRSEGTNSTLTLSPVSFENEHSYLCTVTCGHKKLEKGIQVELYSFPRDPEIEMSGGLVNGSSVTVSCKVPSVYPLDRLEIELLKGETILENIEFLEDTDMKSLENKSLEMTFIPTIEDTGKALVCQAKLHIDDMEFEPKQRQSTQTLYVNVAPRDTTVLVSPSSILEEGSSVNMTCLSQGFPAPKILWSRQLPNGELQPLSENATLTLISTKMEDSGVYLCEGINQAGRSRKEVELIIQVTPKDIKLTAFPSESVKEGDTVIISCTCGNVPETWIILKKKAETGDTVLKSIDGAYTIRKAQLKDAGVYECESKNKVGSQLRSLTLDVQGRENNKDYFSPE

[4] = target: T4, hICAM-1-Fc (human, UniProt P05362)
T4 construct: Fc fusion; member of the panel m9
T4 sequence (P05362 28-480 limits assumed): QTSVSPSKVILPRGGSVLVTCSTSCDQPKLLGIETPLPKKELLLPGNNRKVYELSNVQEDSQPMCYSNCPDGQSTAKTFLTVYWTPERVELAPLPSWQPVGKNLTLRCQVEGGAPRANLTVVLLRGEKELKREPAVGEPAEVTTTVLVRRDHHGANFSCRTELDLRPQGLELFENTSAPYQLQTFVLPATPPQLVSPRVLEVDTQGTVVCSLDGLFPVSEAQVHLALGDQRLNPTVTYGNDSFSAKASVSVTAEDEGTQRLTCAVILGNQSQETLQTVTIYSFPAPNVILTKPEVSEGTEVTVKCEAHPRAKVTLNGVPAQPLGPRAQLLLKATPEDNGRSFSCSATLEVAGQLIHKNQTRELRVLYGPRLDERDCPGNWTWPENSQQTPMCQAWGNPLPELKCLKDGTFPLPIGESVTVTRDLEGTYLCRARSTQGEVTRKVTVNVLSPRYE

[5] = target: T5, hLTBR-Fc (human, UniProt P36941)
T5 construct: Fc fusion; member of the panel m9
T5 sequence (P36941 28-227 limits assumed): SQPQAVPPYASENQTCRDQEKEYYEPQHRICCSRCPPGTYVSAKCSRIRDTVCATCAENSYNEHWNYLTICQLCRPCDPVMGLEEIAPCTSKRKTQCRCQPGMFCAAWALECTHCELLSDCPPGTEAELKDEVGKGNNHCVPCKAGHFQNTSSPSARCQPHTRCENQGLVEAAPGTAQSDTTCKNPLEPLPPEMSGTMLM

[6] = target: T1, h4-1BB-Fc; remark: listed apart in the source
[7] = target: T2, hEpCAM-Fc; remark: listed apart in the source
[8] = target: T6, hCD4 (human, UniProt P01730)
T6 construct: purified recombinant protein; member of the panel m9

[9] = target: T7, hOX40-Fc
T7 construct: member of the panel m9
T7 chain: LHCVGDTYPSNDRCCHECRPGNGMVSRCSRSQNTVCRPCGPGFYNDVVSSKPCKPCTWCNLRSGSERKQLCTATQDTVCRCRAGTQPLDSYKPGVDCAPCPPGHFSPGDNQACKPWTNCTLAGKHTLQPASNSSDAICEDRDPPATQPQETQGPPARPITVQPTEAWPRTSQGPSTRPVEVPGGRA

[10] = target: T8, hBAFFR-Fc (human, UniProt Q96RJ3)
T8 construct: Fc fusion; member of the panel m9
T8 sequence (Q96RJ3 7-71 limits assumed): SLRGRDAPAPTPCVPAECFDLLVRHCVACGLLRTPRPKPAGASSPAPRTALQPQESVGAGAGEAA

[11] = target: T3, hVCAM-1; remark: listed apart in the source
[12] = target: T9, hDR3-Fc (human, UniProt Q93038)
T9 construct: Fc fusion; member of the panel m9
T9 sequence (looked up): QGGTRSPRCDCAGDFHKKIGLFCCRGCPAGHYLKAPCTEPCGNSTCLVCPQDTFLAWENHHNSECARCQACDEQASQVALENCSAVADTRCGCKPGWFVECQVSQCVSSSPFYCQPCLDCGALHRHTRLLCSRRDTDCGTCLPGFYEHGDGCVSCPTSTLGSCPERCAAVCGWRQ

[13] = target: T10, hTWEAK-Fc (human, UniProt O43508)
T10 construct: Fc fusion; member of the panel m9
T10 sequence (looked up): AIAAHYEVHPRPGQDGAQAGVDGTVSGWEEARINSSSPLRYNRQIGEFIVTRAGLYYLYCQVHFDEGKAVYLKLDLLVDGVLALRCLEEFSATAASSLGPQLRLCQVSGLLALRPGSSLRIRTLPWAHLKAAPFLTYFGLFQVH

[14] = target: T11, hDR6-Fc (human, UniProt O75509)
T11 construct: Fc fusion; member of the panel m9
T11 sequence (looked up): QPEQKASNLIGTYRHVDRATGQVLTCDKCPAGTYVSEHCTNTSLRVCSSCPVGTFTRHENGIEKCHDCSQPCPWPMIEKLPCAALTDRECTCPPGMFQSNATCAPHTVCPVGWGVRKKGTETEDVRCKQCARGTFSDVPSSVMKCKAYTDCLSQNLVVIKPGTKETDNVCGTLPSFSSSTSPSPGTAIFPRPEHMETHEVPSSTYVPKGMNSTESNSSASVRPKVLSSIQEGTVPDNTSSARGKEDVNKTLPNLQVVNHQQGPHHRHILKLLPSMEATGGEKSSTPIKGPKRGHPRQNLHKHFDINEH

[15] = target: T12, hVCAM-Fc
T12 construct: member of the panel m9
T12 chain: T3 sequence (looked up)

Measured: binding result

T1 sequence (chain, as listed by the source limits assumed): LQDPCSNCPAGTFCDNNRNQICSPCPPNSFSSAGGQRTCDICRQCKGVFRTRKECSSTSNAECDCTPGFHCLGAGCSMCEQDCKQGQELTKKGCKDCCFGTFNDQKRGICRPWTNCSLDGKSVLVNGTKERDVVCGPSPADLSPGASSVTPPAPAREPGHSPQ

B1: humanized h37M, human IgG1 (antibody, V domains shown)
VH: QVQLVQSGAEVKKPGASVKLSCKASGYTFTDYYINWVRQAPGKGLEWIARIYPGSGNTYYNEKFKGRATLTADKSTSTAYMQLSSLRSEDTAVYFCARGVYYFDYWGQGTTVTVSS
VL: DIVMTQSPSSLSASVGDRVTITCKASQNVRTNVAWYQQKPGKAPKALIYSASYRYSGVPDRFTGSGSGTDFTLTISSLQPEDFADYFCQQYNSYPRTFGGGTKVEIK
notes: human IgG1; terbium-labelled as the tracer of the HTRF assays; also called C-KIT-h37M; h37M-IgG1
no binding (tested: 1 µg/ml): [1] | [2] | [3]

B2: MH1, human IgG1 (antibody, V domains shown)
VH: QVQLVQSGAEVKKPGASVKVSCKASGYTFTDYYMNWVRQAPGQGLEWMGRIYPGSGNTYYAQKFQGRVTMTRDTSTSTVYMELSSLRSEDTAVYYCARGVYYYDYWGQGTLVTVSS
VL: DIQMTQSPSSLSASVGDRVTITCRASQGIRTNLAWFQQKPGKAPKSLIYAASSLQSGVPSRFSGSGSGTDFTLTISSLQPEDFATYYCQQYNSYPRTFGGGTKVEIK
notes: IgG1; also called IgG1-MH1
not listed: [1] | [2] | [3]
no binding (tested: 1 µg/ml): all other assays above
